From publication PMC10423226, “Identification of a drug binding pocket in TMEM16F calcium-activated ion channel and lipid scramblase” (Nature Communications, 2023)

Molecular target: the molecule itself
Assay: cryo-EM structure; TMEM16F in MSP2N2-SoyPC nanodiscs with PIP2 and 4 mM CaCl2, without drug or with 50 uM niclosamide or 100 uM 1PBC; no C2 symmetry imposed

B1: TMEM16F (natural protein, UniProt Q6P9J9 1-911, looked up)
chain: MQMMTRKVLLNMELEEDDDEDGDIVLENFDQTIVCPTFGSLENQQDFRTPEFEEFNGKPDSLFFTDGQRRIDFILVYEDESKKENNKKGTNEKQKRKRQAYESNLICHGLQLEATRSVSDDKLVFVKVHAPWEVLCTYAEIMHIKLPLKPNDLKTRSPFGNLNWFTKVLRVNESVIKPEQEFFTAPFEKSRMNDFYILDRDSFFNPATRSRIVYFILSRVKYQVMNNVNKFGINRLVSSGIYKAAFPLHDCRFNYESEDISCPSERYLLYREWAHPRSIYKKQPLDLIRKYYGEKIGIYFAWLGYYTQMLLLAAVVGVACFLYGYLDQDNCTWSKEVCDPDIGGQILMCPQCDRLCPFWRLNITCESSKKLCIFDSFGTLIFAVFMGVWVTLFLEFWKRRQAELEYEWDTVELQQEEQARPEYEAQCNHVVINEITQEEERIPFTTCGKCIRVTLCASAVFFWILLIIASVIGIIVYRLSVFIVFSTTLPKNPNGTDPIQKYLTPQMATSITASIISFIIIMILNTIYEKVAIMITNFELPRTQTDYENSLTMKMFLFQFVNYYSSCFYIAFFKGKFVGYPGDPVYLLGKYRSEECDPGGCLLELTTQLTIIMGGKAIWNNIQEVLLPWVMNLIGRYKRVSGSEKITPRWEQDYHLQPMGKLGLFYEYLEMIIQFGFVTLFVASFPLAPLLALVNNILEIRVDAWKLTTQFRRMVPEKAQDIGAWQPIMQGIAILAVVTNAMIIAFTSDMIPRLVYYWSFSIPPYGDHTYYTMDGYINNTLSVFNITDFKNTDKENPYIGLGNYTLCRYRDFRNPPGHPQEYKHNIYYWHVIAAKLAFIIVMEHIIYSVKFFISYAIPDVSKITKSKIKREKYLTQKLLHESHLKDLTKNMGIIAERIGGTVDNSVRPKLE
modifications: glycans on the extracellular loops
notes: Sample in lipid nanodiscs (MSP2N2, SoyPC) with PIP2 and 4 mM CaCl2; also called mTMEM16F; TMEM16F dimer; source: HEK293s cells, extracted and purified in DDM/CHS, reconstituted in MSP2N2-SoyPC nanodiscs, FPLC
  stoichiometry N: 2
